Assay results published in patent US20170260241A1.

Biological target: recombinant TLR4 protein
Test: ELISA: TLR4 coated on the plate, MD2 titrated from 133.3 to 0.065 nM, anti-MD2 detection, nonlinear regression

Work on recombinant MD2 protein (ligand) yielded a Kd of 18.4 nM.
